Data reported in patent US9012166B2, “Method for assaying histone methylation enzyme activity” (Kyushu Institute of Technology, priority 2010, dated 2015).
*: point of attachment. AMC = Cc1cc(=O)oc2cc(N*)ccc12

Target: T1, Set9 (His-Set9, His-Set7/9) (Homo sapiens, UniProt Q8WTS6)
T1 sequence (Q8WTS6 1-366): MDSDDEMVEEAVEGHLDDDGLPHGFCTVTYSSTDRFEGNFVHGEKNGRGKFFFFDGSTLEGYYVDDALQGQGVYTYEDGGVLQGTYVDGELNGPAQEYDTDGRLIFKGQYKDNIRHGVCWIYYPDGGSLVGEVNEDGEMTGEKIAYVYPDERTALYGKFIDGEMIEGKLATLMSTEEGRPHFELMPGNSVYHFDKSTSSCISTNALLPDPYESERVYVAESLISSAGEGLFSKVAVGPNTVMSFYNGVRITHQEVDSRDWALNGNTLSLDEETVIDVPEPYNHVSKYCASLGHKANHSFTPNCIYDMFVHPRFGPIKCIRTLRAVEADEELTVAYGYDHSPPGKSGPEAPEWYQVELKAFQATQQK
Assay: Substrate specificity / methylation of peptidyl MCAs by Set9
Format: biochemical
Conditions: for methylation of peptidyl MCA by Set9: Example 6, His-Set9 0-1.5 μg/μL, right panel of FIG. 14; for methylation of peptidyl MCA by His-Set7/9: Example 13, AMC and peptidyl MCA fluorescence, FIGS. 25 and 26
Protocol: When Set9 was adopted as a histone methyltransferase, the following method was used. 10 μL of 2×HMT buffer (100 mM Tris-HCl (pH 8.5), 20 mM MgCl2, 40 mM KCl, 20 mM 2-mercaptoethanol, 500 mM sucrose), 2 μL of a BSA solution (30 μg/mL), 3 μL of His-Set9 (0, 0.33 to 10 μg/μL), and 1 μL of distilled water were mixed and then incubated at room temperature for 1 hour. Then, 2 μL of SAM (10 mM) and 2 μL of a peptidyl MCA solution (0.6 mM) were added thereto, which was then incubated at 37° C. for 1 hour. Thereafter, 30 μL of a trypsin solution (20 mg/mL) was added thereto, followed by incubation at 37° C. for 15 minutes. Then, the fluorescence intensity of the solution was measured at an excitation wavelength (λex) of 390 nm and a fluorescence wavelength (λem) of 460 nm. The final concentration of His-Set9 during the measurement of fluorescence intensity was 0, 0.05, 0.15, 0.5, or 1.5 μg/μL. The results of the assay for measuring histone methyltransferase activity are shown in the right panel of FIG. 14.
When Set9 was adopted as a histone methyltransferase, the following method was used. 10 μL of 2×HMT buffer (100 mM Tris-HCl (pH 8.5), 20 mM MgCl2, 40 mM KCl, 20 mM 2-mercaptoethanol, 500 mM sucrose), 0.4 μL of a BSA solution (150 μg/mL), 5.9 μL of His-Set9 (0, 0.051, 0.17, 0.51, 1.7 μg/μL), and 1.7 μL of distilled water were mixed and then incubated at room temperature for 1 hour. Then, 1 μL of SAM (20 mM) and 1 μL of a peptidyl MCA solution (1.2 mM) were added thereto, which was then incubated at 37° C. for 1 hour. Thereafter, 30 μL of a trypsin solution (20 mg/mL) was added thereto, followed by incubation at 37° C. for 15 minutes. Then, the fluorescence intensity of the solution was measured at an excitation wavelength (λex) of 390 nm and a fluorescence wavelength (λem) of 460 nm. The final concentration of His-Set9 during the measurement of fluorescence intensity was 0, 0.015, 0.05, 0.15, or 0.5 μg/μL. The results of the assay for measuring histone methyltransferase activity are shown in the right panel of FIG. 16.
When Set7/9 was adopted as a histone methyltransferase, the following method was used. 10 μL of 2×HMT buffer (100 mM Tris-HCl (pH 8.5), 20 mM MgCl2, 40 mM KCl, 20 mM 2-mercaptoethanol, 500 mM sucrose), 0.4 μL of a BSA solution (150 μg/mL), 4 µL of His-Set7/9 (0, 0.025 to 0.75 μg/μL), and 3.6 μL of distilled water were mixed and then incubated at room temperature for 1 hour. Then, 1 μL of SAM (final concentration: 0.1 mM) and 1 μL of a peptidyl MCA solution (1.2 mM) were added thereto, which was then incubated at 37° C. for 1 hour. Thereafter, 30 μL of a trypsin solution (20 mg/mL) was added thereto, followed by incubation at 37° C. for 15 minutes. Then, the fluorescence intensity of the solution was measured at an excitation wavelength (λex) of 330 nm and a fluorescence wavelength (λem) of 380 nm or at an excitation wavelength (λex) of 390 nm and a fluorescence wavelength (λem) of 460 nm. The final concentration of His-Set7/9 during the measurement of fluorescence intensity was 0, 0.005, 0.015, 0.05, or 0.15 μg/μL.

Substance	methylation of peptidyl MCA by Set9	methylation of peptidyl MCA by His-Set7/9
Ac-ARK-MCA (Ac-Ala-Arg-Lys-{AMC}; SMILES CC(=O)N[C@@H](C)C(=O)N[C@@H](CCCNC(=N)N)C(=O)N[C@@H](CCCCN)C(=O)Nc1ccc2c(C)cc(=O)oc2c1; listed as Homo sapiens) [Ac-histone H3 (7-9/25-27)-MCA, acetyl-ARK (human histone H3 7-9 or 25-27)-MCA substrate]	little methylation occurred	
Ac-ARTK-MCA (Ac-ARTK-{AMC}; SMILES CC(=O)N[C@@H](C)C(=O)N[C@@H](CCCNC(=N)N)C(=O)N[C@H](C(=O)N[C@@H](CCCCN)C(=O)Nc1ccc2c(C)cc(=O)oc2c1)[C@@H](C)O; listed as Homo sapiens) [Ac-histone H3 (1-4)-MCA]	methylation often occurred	
Ac-ARTKQTARK-MCA [Ac-histone H3 (1-9)-MCA]	little methylation occurred	does not methylate
Ac-KAARK-MCA (Ac-KAARK-{AMC}; SMILES CC(=O)N[C@@H](CCCCN)C(=O)N[C@@H](C)C(=O)N[C@@H](C)C(=O)N[C@@H](CCCNC(=N)N)C(=O)N[C@@H](CCCCN)C(=O)Nc1ccc2c(C)cc(=O)oc2c1; listed as Homo sapiens) [Ac-histone H3 (23-27)-MCA]	little methylation occurred	
Ac-KRSK-MCA (Ac-KRSK-{AMC}; SMILES CC(=O)N[C@@H](CCCCN)C(=O)N[C@@H](CCCNC(=N)N)C(=O)N[C@@H](CO)C(=O)N[C@@H](CCCCN)C(=O)Nc1ccc2c(C)cc(=O)oc2c1; listed as Homo sapiens) [Ac-ERα (299-302)-MCA]		methylates
Ac-LKSK-MCA (Ac-LKSK-{AMC}; SMILES CC(=O)N[C@@H](CC(C)C)C(=O)N[C@@H](CCCCN)C(=O)N[C@@H](CO)C(=O)N[C@@H](CCCCN)C(=O)Nc1ccc2c(C)cc(=O)oc2c1; listed as Homo sapiens) [Ac-p53 (369-372)-MCA]	methylation often occurred	
Ac-QLATKAARK-MCA (Ac-QLATKAARK-{AMC}; SMILES CC(=O)N[C@@H](CCC(N)=O)C(=O)N[C@@H](CC(C)C)C(=O)N[C@@H](C)C(=O)N[C@H](C(=O)N[C@@H](CCCCN)C(=O)N[C@@H](C)C(=O)N[C@@H](C)C(=O)N[C@@H](CCCNC(=N)N)C(=O)N[C@@H](CCCCN)C(=O)Nc1ccc2c(C)cc(=O)oc2c1)[C@@H](C)O; listed as Homo sapiens) [Ac-histone H3 (19-27)-MCA]	little methylation occurred	
Ac-QTARK-MCA [Ac-histone H3 (5-9)-MCA]	little methylation occurred	
